# Data reported in the supplement of paper PMC10126150.
# ± gives the standard deviation of the averaged measurements.
# Test system: ATP
# Assay: switch fluorescence ratio, 500 uM ATP over buffer (Cy3 cluster intensity, sum of 5 cycles each) (fold (ratio)); higher = stronger signal-on switching upon ATP binding; sequences stand for … in TCGTCGGCAGCGTCAGATGTGTATAAGAGACAGTTTTTTTTTTTTTTTTTTTTTTTTT…TC
# Settings: aptamer strand: ATP DNA aptamer (quencher-CACCTGGGGGAGTATTGCGGAGGAAGG + anchor), 100 nM annealed; ATP concentration: 500 uM
# In short: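 Switching-strand clusters labelled with Cy3 on a modified Illumina MiSeq flow-cell were annealed to 100 nM quencher-labelled ATP aptamer, imaged in selection buffer, and re-imaged after 15 min with 500 uM ATP at 22 °C. This was done over five cycles with NaOH stripping and re-annealing in between. The fluorescence ratio is summed target-cycle over summed buffer-cycle Cy3 intensity per cluster, averaged per switch-domain sequence, excluding clusters outside 100-1000 RFU.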
# 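Also: ATP exposure 15 min at 22 °C before imaging.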
row,Sequence,switch fluorescence ratio
1,CCATACGGGG,0.998 ± 0.023
2,CCATATAGAG,1.02 ± 0.027
3,CCATGCGATG,1.21 ± 0.1
4,CCATGGTTGT,1.011 ± 0.005
5,CCATGGTTTT,1.0024 ± 0.00092
6,CCATGTATAA,1.02 ± 0.016
7,CCATGTCAGC,1.03 ± 0.021
8,CCATGTGAAG,0.992 ± 0.027
9,CCATGTGTAG,1 ± 0.017
10,CCATGTGTCG,1.05 ± 0.064
11,CCATTAATAG,1.04 ± 0.057
12,CCATTAGTTT,0.987 ± 0.018
13,CCATTCTTGT,1.04 ± 0.022
14,CCATTTCTGA,1.03 ± 0.015
15,CCATTTGTGT,0.976 ± 0.023
16,CCCAAAAACG,1.25 ± 0.29
17,CCCAATTCCT,1.14 ± 0.031
18,CCCAATTTCT,1.05 ± 0.045
19,CCCACCGGGC,1.05 ± 0.022
20,CCCACCGTTG,1.17 ± 0.03
21,CCCAGCACGT,1.37 ± 0.04
22,CCCAGGGT,1.54 ± 0.67
23,CCCATTATGC,1.13 ± 0.057
24,CCCATTGTCG,1.01 ± 0.064
25,CCCATTTTGC,1.032 ± 0.0067
26,CCCCAGAGCT,1.66 ± 0.066

row,Sequence,switch fluorescence ratio
1,CCCCAGGGGT,2.44 ± 2
2,CCCCGGCTGG,1.125 ± 0.005
3,CCCCGGGGGG,1.09 ± 0.15
4,CCCCTGTTTT,1.01 ± 0.022
5,CCCGAAGGGC,1.01 ± 0.081
6,CCCGACTTTA,1.04 ± 0.014
7,CCCGAGTATG,1.034 ± 0.0099
8,CCCGATGTTA,0.9973 ± 0.0041
9,CCCGATTTTG,1.023 ± 0.0069
10,CCCGGACGGT,1 ± 0.025
11,CCCGGATTTG,1.01 ± 0.055
12,CCCGGCTGTT,1.02 ± 0.067
13,CCCGGGAAAT,1.04 ± 0.059
14,CCCGGGAGGT,1.035 ± 0.0094
15,CCCGGGGGCT,1.41 ± 0.032
16,CCCGGGTTGG,1.12 ± 0.08
17,CCCGGTATCG,0.983 ± 0.013
18,CCCGGTTTAG,1.03 ± 0.0015
19,CCCGTATATC,2.72 ± 0.44
20,CCCGTGCCTA,1.03 ± 0.064
21,CCCGTGTGAG,0.983 ± 0.045
22,CCCTAGGATT,1.01 ± 0.03
23,CCCTAGGGTC,1.01 ± 0.023
24,CCCTAGGGTT,1.44 ± 0.56
25,CCCTAGTATG,0.9915 ± 0.0059
26,CCCTATTTGC,1.06 ± 0.02

row,Sequence,switch fluorescence ratio
1,CCCTGATCTG,1.02 ± 0.011
2,CCCTGGACGG,0.9883 ± 0.0053
3,CCCTGTCATC,2.1 ± 1.4
4,CCCTGTGAGC,1.08 ± 0.013
5,CCCTTGATGC,1.151 ± 0.008
6,CCGAAAAGCT,1.17 ± 0.041
7,CCGAAGGTTA,1.09 ± 0.032
8,CCGAATAATT,1.08 ± 0.011
9,CCGAATAGTT,1.18 ± 0.14
10,CCGAATTATA,2.04 ± 1.3
11,CCGAATTGGG,1.01 ± 0.032
12,CCGAGATCTT,1.03 ± 0.032
13,CCGAGCTTGA,1.61 ± 0.085
14,CCGAGGAATG,1.106 ± 0.0083
15,CCGAGTTTGT,1.05 ± 0.011
16,CCGATAATAG,5.21 ± 2.2
17,CCGATTAAAT,1.44 ± 0.1
18,CCGATTACGC,1.9 ± 0.13
19,CCGATTGGCA,1.55 ± 0.14
20,CCGATTGTTG,1.02 ± 0.038
21,CCGCACGAGT,3.73 ± 0.63
22,CCGCACTAAG,3.94 ± 0.74
23,CCGCATTTGT,2.68 ± 2.4
24,CCGCCATTGG,1.62 ± 0.069
25,CCGCCGGGGT,1.91 ± 0.31
26,CCGCGCTGCC,2.71 ± 0.8

row,Sequence,switch fluorescence ratio
1,CCGCGGCTGG,1.154 ± 0.01
2,CCGGAAGCAG,3.95 ± 0.66
3,CCGGAATCAT,1.127 ± 0.00097
4,CCGGAGGGAG,1.0201 ± 0.0006
5,CCGGAGTTGG,3.49 ± 0.11
6,CCGGATACGT,1.39 ± 0.086
7,CCGGATTGTC,1.13 ± 0.044
8,CCGGCGGGGC,1 ± 0.013
9,CCGGCGGGGG,1.4 ± 0.56
10,CCGGCTTGCA,1.13 ± 0.017
11,CCGGGAAGGG,1.05 ± 0.012
12,CCGGGAGCAG,1.95 ± 0.61
13,CCGGGATGGT,1.14 ± 0.057
14,CCGGGATTGA,1.083 ± 0.0038
15,CCGGGCCAGC,1.47 ± 0.063
16,CCGGGGAACA,1.004 ± 0.0069
17,CCGGGGAAGT,0.978 ± 0.031
18,CCGGGGACTG,1.1 ± 0.033
19,CCGGGGATGT,1.05 ± 0.04
20,CCGGGGATTC,1.36 ± 0.2
21,CCGGGGGATG,1.03 ± 0.042
22,CCGGGGGGGG,1.1 ± 0.17
23,CCGGGGTAGA,1.02 ± 0.023
24,CCGGGGTCGG,1.04 ± 0.057
25,CCGGGGTGGT,1.07 ± 0.035
26,CCGGGTATTG,1.027 ± 0.0036

row,Sequence,switch fluorescence ratio
1,CCGGTAGGTA,0.969 ± 0.011
2,CCGGTATGGT,1.012 ± 0.0077
3,CCGGTCAGCC,1.11 ± 0.039
4,CCGGTCTACA,1.05 ± 0.047
5,CCGGTGAGGG,0.999 ± 0.05
6,CCGGTGCCAA,3.85 ± 0.21
7,CCGGTGTAGA,1.01 ± 0.034
8,CCGGTGTTTG,0.987 ± 0.021
9,CCGGTGTTTT,1.06 ± 0.041
10,CCGGTTTGGA,1.13 ± 0.17
11,CCGGTTTGGC,1.062 ± 0.006
12,CCGGTTTTTT,1.003 ± 0.0078
13,CCGTAATAGG,4.83 ± 0.55
14,CCGTAATCAG,1.98 ± 0.14
15,CCGTAATGTG,1.5 ± 0.16
16,CCGTAGGAGG,1 ± 0.021
17,CCGTATATCC,2.44 ± 0.16
18,CCGTCGAATA,2.2 ± 0.027
19,CCGTCGATGG,1.1 ± 0.036
20,CCGTGAGGGT,1.02 ± 0.038
21,CCGTGGGACC,1.11 ± 0.016
22,CCGTGGGTAC,5.55 ± 0.7
23,CCGTGGTACC,1.84 ± 0.12
24,CCGTGGTTTT,0.99133 ± 5.8e-05
25,CCGTGTAAGC,1.343 ± 0.0024
26,CCGTGTTCGA,1.01 ± 0.051

row,Sequence,switch fluorescence ratio
1,CCGTTAGTAA,3.13 ± 0.46
2,CCGTTCGACA,1.37 ± 0.058
3,CCGTTGACCT,1.073 ± 0.01
4,CCGTTGAGTC,1.06 ± 0.049
5,CCGTTGGGGG,1.01 ± 0.036
6,CCGTTGTGGA,1.038 ± 0.0027
7,CCGTTGTTCG,1.02 ± 0.027
8,CCGTTGTTTG,0.979 ± 0.011
9,CCGTTTATAT,1.4 ± 0.13
10,CCGTTTTTAC,4.11 ± 0.83
11,CCGTTTTTAT,1.01 ± 0.018
12,CCTAAAAAGG,1.26 ± 0.29
13,CCTAAAGGCT,1.0151 ± 4.7e-05
14,CCTAAGTGTT,1.06 ± 0.069
15,CCTAATCGGT,1.006 ± 0.0095
16,CCTAATGCCG,0.996 ± 0.04
17,CCTAGGGAAG,0.9972 ± 0.0046
18,CCTAGTAGCG,1.01 ± 0.014
19,CCTAGTTGGC,1.03 ± 0.083
20,CCTATAATAG,1.17 ± 0.064
21,CCTATAATAT,1.05 ± 0.024
22,CCTCAAAAAA,2.98 ± 0.2
23,CCTCATGACA,1.263 ± 0.0096
